One block for each binder: values may come before it.
Assays:
[1] = biological target: T1, Peptide 1 MDQWSTQDLYNNPVT (human); assay: SPOT peptide scan, peroxidase-conjugated antibody, luminescence; no exchange
T1 construct: linear 15mer of the SPOT peptide scan; has no cysteine, so the Cys-Ser exchange row is the same peptide
T1 peptide: MDQWSTQDLYNNPVT

[2] = biological target: T2, Peptide 6 QGLWRSCVRESSGFT (human); assay: as above
T2 construct: linear 15mer of the SPOT peptide scan, no exchange
T2 peptide: QGLWRSCVRESSGFT

[3] = biological target: T3, Peptide 7 RSCVRESSGFTECRG (human); assay: as above
T3 construct: linear 15mer of the SPOT peptide scan, no exchange
T3 peptide: RSCVRESSGFTECRG

[4] = biological target: T4, Peptide 7, Cys-Ser exchange (human); assay: SPOT peptide scan, peroxidase-conjugated antibody, luminescence; Cys-Ser exchange
T4 construct: also called peptide 7 containing serines instead of the two cysteines
T4 peptide: RSSVRESSGFTESRG

human CLD18A1 [5] = biological target: T5, human CLD18A1 (human, UniProt P56856 1-261); assay: flow cytometry on HEK293-CLD18A1 cells
T5 construct: on transfected HEK293 or CHO cells; also called claudin 18 splice variant 1; NP-057453

[6] = biological target: T6, Peptide 3 LYNNPVTAVFNYQGL (human); assay: SPOT peptide scan, peroxidase-conjugated antibody, luminescence; no exchange
T6 construct: linear 15mer of the SPOT peptide scan; has no cysteine, so the Cys-Ser exchange row is the same peptide
T6 peptide: LYNNPVTAVFNYQGL

[7] = biological target: T7, Peptide 5 VFNYQGLWRSCVRES (human); assay: as above
T7 construct: linear 15mer of the SPOT peptide scan, no exchange
T7 peptide: VFNYQGLWRSCVRES

[8] = biological target: T8, Peptide 5, Cys-Ser exchange (human); assay: SPOT peptide scan, peroxidase-conjugated antibody, luminescence; Cys-Ser exchange
T8 peptide: VFNYQGLWRSSVRES

[9] = biological target: T9, Peptide 6, Cys-Ser exchange (human); assay: as above
T9 peptide: QGLWRSSVRESSGFT

human CLD18A1 [10] = biological target: T5, human CLD18A1; assay: summary table of murine antibodies
murine CLD18A1 [11] = biological target: T10, murine CLD18A1 (mouse, UniProt P56857 1-264); assay: summary table of murine antibodies
T10 construct: on transiently transfected HEK293 cells; also called mouse CLD18A1; NP-062789

murine CLD18A1 [12] = biological target: T10, murine CLD18A1; assay: flow cytometry on transfected HEK293 cells
Method: Binding of the identified monoclonal antibodies to murine CLD18A2 and CLD18A1 was analyzed by flow cytometry. […] Binding was assessed by flow cytometry using a BD FACSArray.

human CLD18A1 [13] = biological target: T5, human CLD18A1; assay: summary of properties
murine CLD18A1 [14] = biological target: T10, murine CLD18A1; assay: summary of properties

B1: ch-175D10 (antibody, V domains shown)
VH: QVQLQQPGAELVRPGASVKLSCKASGYTFTSYWINWVKQRPGQGLEWIGNIYPSDSYTNYNQKFKDKATLTVDKSSSTAYMQLSSPTSEDSAVYYCTRSWRGNSFDYWGQGTTLTVSS
VL: DIVMTQSPSSLTVTAGEKVTMSCKSSQSLLNSGNQKNYLTWYQQKPGQPPKLLIYWASTRESGVPDRFTGSGSGTDFTLTISSVQAEDLAVYYCQNDYSYPFTFGSGTKLEIKR
notes: mouse/human chimeric, human gamma-1 and kappa constant regions; peroxidase-conjugated in the peptide scan; also called chimeric 175D10
binding result [1]: binds | binding result [2]: binds | binding result [3]: binds | binding result [4]: binds

B2: ch-163E12 (antibody, V domains shown)
VH: QIQLVQSGPELKKPGETVKISCKASGYTFTNYGMNWVKQAPGKGLKWMGWINTNTGEPTYAEEFKGRFAFSLETSASTAYLQINNLKNEDTATYFCARLGFGNAMDYWGQGTSVTVSS
VL: DIVMTQSPSSLTVTAGEKVTMSCKSSQSLLNSGNQKNYLTWYQQKPGQPPKLLIYWASTRESGVPDRFTGSGSGTDFTLTISSVQAEDLAVYYCQNDYSYPLTFGAGTKLELKR
notes: mouse/human chimeric, human gamma-1 and kappa constant regions; peroxidase-conjugated in the peptide scan; also called chimeric 163E12
binding result (human CLD18A1 [5]): no binding | binding result [1]: binds | binding result [6]: binds | binding result [7]: binds | binding result [2]: binds | binding result [8]: binds | binding result [9]: binds

B3: ch-125E1 (antibody, V domains shown)
VH: QVQLQQSGAELARPGASVKLSCKASGYTFTDYYINWVKQRTGQGLEWIGEIYPGSGNTYYNEKFKGKATLTADKSSSTAYMQLSSLTSEDSAVYFCARSYGAFDYWGQGTTLTVSS
VL: DIVMTQSQKFMSTSVGDRVSITCKASQNVRTAVAWYQQKPGQSPKALIYLASNRHTGVPDRFTGSGSGTDFTLTISNVQSEDLADYFCLQHWNYPLTFGGGTKLEIKR
notes: mouse/human chimeric, human gamma-1 and kappa constant regions; also called chimeric 125E1
binding result (human CLD18A1 [5]): no binding

B4: 125E1 (antibody, IgG2a, V domains shown)
VH: QVQLQQSGAELARPGASVKLSCKASGYTFTDYYINWVKQRTGQGLEWIGEIYPGSGNTYYNEKFKGKATLTADKSSSTAYMQLSSLTSEDSAVYFCARSYGAFDYWGQGTTLTVSS
VL: DIVMTQSQKFMSTSVGDRVSITCKASQNVRTAVAWYQQKPGQSPKALIYLASNRHTGVPDRFTGSGSGTDFTLTISNVQSEDLADYFCLQHWNYPLTFGGGTKLEIK
notes: mouse monoclonal IgG2a, kappa; also called 182-D1106-279; DSM ACC2808
binding result (human CLD18A1 [10]): no binding | binding result (murine CLD18A1 [11]): no binding

B5: ch-43A11 (antibody, V domains shown)
VH: QVQLQQSGAELMKPGASVKISCKATGYTFSSYWIEWVKQRPGHGLEWIGEILPGSGSTNYNEKFKGKATFTADTSSNTAYMQLSSLTSEDSAVYYCARYDYPWFAYWGQGTLVTVSA
VL: QIVLTQSPAIMSASPGEKVTITCSASSSVSYMHWFQQKPGTSPKLWIYSTSNLASGVPARFSGSGSGTSYSLTISRMEAEDAATYYCQQRSSYPPTFGGGTKLEIKR
notes: mouse/human chimeric, human gamma-1 and kappa constant regions; also called chimeric 43A11
binding result (human CLD18A1 [5]): no binding

The remaining lines, values ahead:

binding result (human CLD18A1 [5]): no binding
B6: 43A11 (antibody, IgG2a, V domains shown)
VH: QVQLQQSGAELMKPGASVKISCKATGYTFSSYWIEWVKQRPGHGLEWIGEILPGSGSTNYNEKFKGKATFTADTSSNTAYMQLSSLTSEDSAVYYCARYDYPWFAYWGQGTLVTVSA
VL: QIVLTQSPAIMSASPGEKVTITCSASSSVSYMHWFQQKPGTSPKLWIYSTSNLASGVPARFSGSGSGTSYSLTISRMEAEDAATYYCQQRSSYPPTFGGGTKLEIK
notes: mouse monoclonal IgG2a, kappa; also called 182-D1106-062; DSM ACC2742

binding result (human CLD18A1 [5]): no binding | binding result (murine CLD18A1 [12]): no binding
B7: 163E12 (antibody, IgG3, V domains shown)
VH: QIQLVQSGPELKKPGETVKISCKASGYTFTNYGMNWVKQAPGKGLKWMGWINTNTGEPTYAEEFKGRFAFSLETSASTAYLQINNLKNEDTATYFCARLGFGNAMDYWGQGTSVTVSS
VL: DIVMTQSPSSLTVTAGEKVTMSCKSSQSLLNSGNQKNYLTWYQQKPGQPPKLLIYWASTRESGVPDRFTGSGSGTDFTLTISSVQAEDLAVYYCQNDYSYPLTFGAGTKLELK
notes: mouse monoclonal IgG3, kappa; also called 182-D1106-294; DSM ACC2809

binding result (human CLD18A1 [5]): no binding
B8: ch-166E2 (antibody, V domains shown)
VH: QVQLQQSGPELVKPGASVKMSCKASGYTFTDYVISWVKQRTGQGLEWIGEIYPGSGSTYYNEKFKGKATLTADKSSNTAYMQLSSLTSEDSAVYFCARGVLLRAMDYWGQGTSVTVSS
VL: DIVMSQSPSSLAVSAGEKVTMSCKSSQSLLNSRTRKNYLAWYQQKPGQSPKLLIYWASTRESGVPDRFTGSGSGTDFTLTISSVQAEDLAVYYCKQSYNLYTFGGGTKLEIKR
notes: mouse/human chimeric, human gamma-1 and kappa constant regions; also called chimeric 166E2

binding result (human CLD18A1 [13]): no binding | binding result (murine CLD18A1 [14]): no binding
B9: 166E2 (antibody, IgG3, V domains shown)
VH: QVQLQQSGPELVKPGASVKMSCKASGYTFTDYVISWVKQRTGQGLEWIGEIYPGSGSTYYNEKFKGKATLTADKSSNTAYMQLSSLTSEDSAVYFCARGVLLRAMDYWGQGTSVTVSS
VL: DIVMSQSPSSLAVSAGEKVTMSCKSSQSLLNSRTRKNYLAWYQQKPGQSPKLLIYWASTRESGVPDRFTGSGSGTDFTLTISSVQAEDLAVYYCKQSYNLYTFGGGTKLEIK
notes: mouse monoclonal IgG3, kappa; also called 182-D1106-308
